Experimental data as given in patent US20230212270A1 (UNIVERSITY OF PITTSBURGH OF THE COMMONWEALTH SYSTEM OF …, published 2023).

Tests used:
[1] = biological target: T1, Human serum albumin (HSA) (human, UniProt P02768 25-609); assay: SPR (Biacore 3000), HSA immobilised on CM5 chip, Nb as analyte
T1 construct: In SPR the HSA was immobilised on a CM5 chip
Experimental: Nb Affinity measurement by surface plasmon resonance (SPR) Surface plasmon resonance (SPR, Biacore 3000 system, GE Healthcare) was used to measure Nb affinities. Briefly, a protein antigen such as GST, OMP25 PDZ domain or human serum albumin was immobilized to the flow channels of an activated CM5 sensor-chip. Protein analytes were diluted to 10-30 µg/ml in 10 mM sodium acetate, pH 4.5, and injected into the SPR system at 5 µl/min for 420 s. The surface was then blocked by 1 M ethanolamine-HCl (pH 8.5). For each Nb analyte, a series of dilution spanning approximately 1,000 fold was injected in duplicate, with HBS-EP+ running buffer (GE-Healthcare) containing 2 mM DTT, at a flow rate of 20- 30 µl/min for 120- 180 s, followed by a dissociation time of 5 - 20 mins based on dissociation rate. Between each injection, the sensor chip surface was regenerated with low pH buffer containing 10 mM glycine-HCl (pH 1.5- 2.5) at a flow rate of 40-50 µl/min for 30 s, or high pH buffer of 20-40 mM NaOH (pH 12- 13) at 40-50 µl/min for 30 s. Binding sensorgrams for each Nb were processed and analyzed using BIA evaluation by fitting with 1:1 Langmuir model or 1:1 Langmuir model with mass transfer.

[2] = biological target: T1, Human serum albumin (HSA); assay: affinity as cited in the structural example (SPR)

T1 sequence (P02768 25-609 limits assumed, form in doubt): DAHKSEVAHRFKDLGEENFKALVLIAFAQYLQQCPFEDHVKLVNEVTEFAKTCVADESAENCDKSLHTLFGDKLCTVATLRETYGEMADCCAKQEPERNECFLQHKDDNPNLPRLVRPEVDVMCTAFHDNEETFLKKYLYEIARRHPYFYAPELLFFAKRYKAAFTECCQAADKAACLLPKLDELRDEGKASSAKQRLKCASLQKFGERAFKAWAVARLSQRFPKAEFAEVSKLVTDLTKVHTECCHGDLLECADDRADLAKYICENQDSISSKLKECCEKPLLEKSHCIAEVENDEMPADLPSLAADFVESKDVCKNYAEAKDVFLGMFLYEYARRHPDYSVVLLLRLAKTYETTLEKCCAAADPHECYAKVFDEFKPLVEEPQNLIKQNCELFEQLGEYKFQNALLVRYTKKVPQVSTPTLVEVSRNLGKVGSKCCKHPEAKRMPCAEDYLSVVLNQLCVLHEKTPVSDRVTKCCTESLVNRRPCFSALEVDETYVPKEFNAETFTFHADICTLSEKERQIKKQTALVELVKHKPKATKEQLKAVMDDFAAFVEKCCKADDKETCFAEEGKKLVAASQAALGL

Kd [1]: 0.166 nM
koff [1]: 2.75e-05 s⁻¹
kon [1]: 166000 M⁻¹ s⁻¹
Kd [2]: 0.16 nM
B1: Nb80 (VHH)
VHH: EVQLVESGGGLVQAGGSLRLSCTASGRTFTPYTMGWFRQAPGKEREFVASILWSGNNRDYADSVKGRFAISRDNAKNTAYLQMTSLKPEDTAVYYCAAGDGLGFYRSVNQYDYWGQGTQVTVS
notes: His-tagged nanobody from E. coli
